A short description of assay [1]: Luminescence activity assay of purified Gaussia luciferase mutants on coelenterazine. It is filed as biochemical. Also noted: key to Activity of mutant relative to wild-type Gaussia luciferase without the signal peptide: ratio of mutant luminescence intensity to wild-type Gaussia luciferase. As to conditions: Substrate CTZ (Table 16). Here is the method:
(§1) In this Example, the protein concentration was determined with a BCA quantitative kit (Thermo Scientific™ Pierce™ BCA Protein Assay Kit) accurately. The purified luciferase obtained in Example 5 was diluted with diluent (50 mM Tris-HCl, pH 8.0, 100 mM NaCl, 0.1% (v/v) Tween-20) to 1 μg/mL. The diluted luciferase, taken for 10 μL, was moved into a black 96-well plate, then added with 90 μL of the substrates coelenterazine, fluoro-coelenterazine or coelenterazine derivative ZS2 (purchased from Biolab) which was diluted into 100 μM with the same diluent, and the luminescence intensity of the plate was read with a self-luminescence module of a microplate reader. The mutation site of the mutant, the measured luminescence intensity, the ratio of luminescence intensities of the advantageous mutants to the wild-type Gaussia luciferase without the signal peptide having the sequence shown in SEQ ID NO: 3 are shown in Table 15. The results of catalytic activity assay of the advantageous mutants relative to the wild-type Gaussia luciferase without the signal peptide having the sequence shown in SEQ ID NO: 3 on substrate coelenterazine are shown in FIG. 6. […] The results of catalytic activity assay of the advantageous mutants relative to the wild-type Gaussia luciferase without the signal peptide having the sequence shown in SEQ ID NO: 3 on substrate fluoro-coelenterazine are shown in FIG. 7.
(§2) The new mutant library constructed in Example 7 was screened and tested for substrate specificity. Expression and purification schemes were the same as that in Example 5, and the activity assay scheme was the same as that in Example 6. The respective catalytic activities of combinatorial mutants on coelenterazine, fluoro-coelenterazine or coelenterazine derivative ZS2, and coelenterazine derivative ZS26 (purchased from BIOLAB) were assayed, and comparisons among the substrate specificities of the combinatorial mutants were based on the ratios of catalytic activities on two corresponding substrates.

A short description of assay [2]: Luminescence activity assay of purified Gaussia luciferase mutants on coelenterazine derivative ZS2. More on the design: key to Activity of mutant relative to wild-type Gaussia luciferase without the signal peptide: ratio of mutant luminescence intensity to wild-type Gaussia luciferase. It is filed as biochemical. As to conditions: Substrate ZS2 (Table 16). The protocol: as §1, §2

Numbering of substitutions follows the chain as printed. Numbers in names are those of the source.

B1: T96P Q163D T167S G174N K178S A182Y G183A: Gaussia luciferase mutant (protein)
chain: MGVKVLFALICIAVAEAKPTENNEDFNIVAVASNFATTDLDADRGKLPGKKLPLEVLKEMEANARKAGCTRGCLICLSHIKCTPKMKKFIPGRCHPYEGDKESAQGGIGEAIVDIPEIPGFKDLEPMEQFIAQVDLCVDCTTGCLKGLANVQCSDLLKKWLPDRCASFASKIQNQVDSIKGYAGD
modifications: SIGNAL (1)..(17)
notes: Gaussia luciferase mutant
On to B1, for which the “Activity of mutant relative to wild-type Gaussia luciferase without the signal peptide” value was found to be 0.007 in assay [1] and 0.273 in assay [2].

B2: E102K S103T E110A: Gaussia luciferase mutant (protein)
chain: B1 chain with P96T, E102K, S103T, E110A, D163Q, S167T, N174G, S178K, Y182A, A183G
modifications: SIGNAL (1)..(17)
notes: Gaussia luciferase mutant
Turning to B2, the “Activity of mutant relative to wild-type Gaussia luciferase without the signal peptide” value in assay [1] was found to be 0.864; in assay [2], 1.504.

B3: V29A A30D V31I A32V S33N L40A: Gaussia luciferase mutant (protein)
chain: MGVKVLFALICIAVAEAKPTENNEDFNIADIVNNFATTDADADRGKLPGKKLPLEVLKEMEANARKAGCTRGCLICLSHIKCTPKMKKFIPGRCHTYEGDKESAQGGIGEAIVDIPEIPGFKDLEPMEQFIAQVDLCVDCTTGCLKGLANVQCSDLLKKWLPQRCATFASKIQGQVDKIKGAGGD
modifications: SIGNAL (1)..(17)
notes: Gaussia luciferase mutant
In the case of B3, the “Activity of mutant relative to wild-type Gaussia luciferase without the signal peptide” value is reported as 1.046 in assay [1] and 1.164 in assay [2].

B4: V29L A30G A32V S33G A36N T37A L40S: Gaussia luciferase mutant (protein)
chain: B3 chain with A29L, D30G, I31V, N33G, A36N, T37A, A40S
modifications: SIGNAL (1)..(17)
notes: Gaussia luciferase mutant
For the molecule B4, the “Activity of mutant relative to wild-type Gaussia luciferase without the signal peptide” value in assay [1] was 0.764; in assay [2], 1.976.

B5: V29S A30G V31I A32V S33G A36D T37A: Gaussia luciferase mutant (protein)
chain: B3 chain with A29S, D30G, N33G, A36D, T37A, A40L
modifications: SIGNAL (1)..(17)
notes: Gaussia luciferase mutant
On to B5, for which the “Activity of mutant relative to wild-type Gaussia luciferase without the signal peptide” value in assay [1] is 0.000; in assay [2], 0.142.

B6: F26C V29L A30D V31L A32V S33G L40I: Gaussia luciferase mutant (protein)
chain: B3 chain with F26C, A29L, I31L, N33G, A40I
modifications: SIGNAL (1)..(17)
notes: Gaussia luciferase mutant
Turning to B6, the “Activity of mutant relative to wild-type Gaussia luciferase without the signal peptide” value in assay [1] was 0.000; in assay [2] it was 0.312.

B7: F26C V29Y S33G A36I T37E L40T: Gaussia luciferase mutant (protein)
chain: B3 chain with F26C, A29Y, D30A, I31V, V32A, N33G, A36I, T37E, A40T
modifications: SIGNAL (1)..(17)
notes: Gaussia luciferase mutant
Take B7: the “Activity of mutant relative to wild-type Gaussia luciferase without the signal peptide” value in assay [1] is on record as 0.016; in assay [2], 1.131.

B8: F26A N27D V29R A30G A32E S33G A36P L40A: Gaussia luciferase mutant (protein)
chain: B3 chain with F26A, N27D, A29R, D30G, I31V, V32E, N33G, A36P
modifications: SIGNAL (1)..(17)
notes: Gaussia luciferase mutant
With B8, the “Activity of mutant relative to wild-type Gaussia luciferase without the signal peptide” value in assay [1] was determined as 0.034; in assay [2], 0.684.

The values are drawn from patent US20250066745A1, “MUTANTS AND USE THEREOF” (BGI SHENZHEN, priority 2021, published 2025).
